Data taken from PMC6684660, “ABCG1 contributes to suberin formation in Arabidopsis thaliana roots” (Scientific Reports, 2019).
Positions count from the first letter of the chain named. Names and notes keep the numbering of the source.

B1: AtABCG1 (Arabidopsis thaliana) (protein)
chain: MARIVAANDDDSMELNTISSIHDSTLGQLLKNVSDVRKMAIGDETPVHESLNQDYNDGYMRTVPFVLSFDNLTYNVSVRPKLDFRNLFPRRRTEDPEIAQTARPKTKTLLNNISGETRDGEIMAVLGASGSGKSTLIDALANRIAKGSLKGTVKLNGETLQSRMLKVISAYVMQDDLLFPMLTVEETLMFAAEFRLPRSLPKSKKKLRVQALIDQLGIRNAAKTIIGDEGHRGISGGERRRVSIGIDIIHDPILLFLDEPTSGLDSTSAFMVVKVLKRIAQSGSIVIMSIHQPSHRVLGLLDRLIFLSRGHTVYSGSPASLPRFFTEFGSPIPENENRTEFALDLIRELEGSAGGTRGLIEFNKKWQEMKKQSNRQPPLTPPSSPYPNLTLKEAIAASISRGKLVSGGESVAHGGATTNTTTLAVPAFANPMWIEIKTLSKRSMLNSRRQPELFGIRIASVVITGFILATVFWRLDNSPKGVQERLGFFAFAMSTMFYTCADALPVFLQERYIFMRETAYNAYRRSSYVLSHAIVSFPSLIFLSVAFAATTYWAVGLDGGLTGLLFYCLIILASFWSGSSFVTFLSGVVPSVMLGYTIVVAILAYFLLFSGFFINRNRIPDYWIWFHYMSLVKYPYEAVLQNEFSDATKCFVRGVQIFDNTPLGELPEVMKLKLLGTVSKSLGVTISSTTCLTTGSDILRQQGVVQLSKWNCLFITVAFGFFFRILFYFTLLLGSKNKRR
notes: full-length half-size transporter, N-terminal tag (CBP, His detected) kept, expressed in Pichia pastoris X33, purified in Fos-Choline-14, 86 kDa with tag, homodimer
B2: AtABCG1 (Arabidopsis thaliana; E259Q/H291A) (protein)
chain: B1 chain with E259Q, H291A
notes: as for B1

Substrate: Nc1ncnc2c1ncn2[C@@H]1O[C@H](COP(=O)(O)OP(=O)(O)OP(=O)(O)O)[C@@H](O)[C@H]1O
Experiment: malachite green ATPase assay
Format: biochemical, Arabidopsis thaliana
Details: ATP 0-8 mM, 10 mM MgCl2, 25 °C
Text: malachite green ATPase assay on AtABCG1

[1] = Fos-Choline-14, EQ/HA background subtracted
[2] = Fos-Choline-14, hydrolysis-deficient mutant used as background control

Protein	Km [1] [µM]	Vmax [1] [µmol/min/mg]	Km [2] [µM]	Vmax [2] [µmol/min/mg]
B1	1800 ± 100	0.0188	–	–
B2	–	–	700 ± 400	0.0017
